Experimental findings from patent US10308712B2, “Antibodies that bind human cannabinoid 1 (CB1) receptor” (priority 2014, dated 2019) are described below.

The target in experiment [1] is T1, human CB1 expressing TRex-CHO cells (Homo sapiens, UniProt P21554).
T1 construct: pcDNA4/TO native full length human CB1 receptor construct was transfected into tetracycline inducible system Trex-CHO and Trex-293 cells; expressed in transfected cells
It counts as cell-based.

The target in experiment [2] is T2, CB1 TRex-CHO cells (Homo sapiens, UniProt P21554).
T2 construct: pcDNA4/TO native full length human CB1 receptor construct was transfected into tetracycline inducible system Trex-CHO and Trex-293 cells; expressed in transfected cells
Format: cell-based. The conditions noted are these: antibody 300 nM, 1 hour.

For experiment [3], the target named is Mouse CB1 (Mus musculus, UniProt P47746). The experiment in a line: Flow cytometry (FACS) cross-reactivity, mouse CB1 cells. Conditions: in words.
Experiment [4] has as its system TRex CHO parental cells. The experiment in a line: Flow cytometry (FACS) binding, parental cells. The conditions noted are these: in words. A general note: In flow cytometry, cells or beads pass a laser one at a time.
Experiment [5] deals with human CB2 (Homo sapiens, UniProt P34972). Briefly: Flow cytometry (FACS) selectivity, human CB2 cells. Conditions: in words.
Experiment [6] deals with Trex-CHO CB1 receptor cells, WIN55,212 induced ERK phosphorylation. Briefly: ERK activation assay (western blot). Conditions: IgG 300 nM, WIN55,212 100 nM. Background: In western blotting, separated proteins are transferred to a membrane and probed.

T2 sequence (P21554 whole entry): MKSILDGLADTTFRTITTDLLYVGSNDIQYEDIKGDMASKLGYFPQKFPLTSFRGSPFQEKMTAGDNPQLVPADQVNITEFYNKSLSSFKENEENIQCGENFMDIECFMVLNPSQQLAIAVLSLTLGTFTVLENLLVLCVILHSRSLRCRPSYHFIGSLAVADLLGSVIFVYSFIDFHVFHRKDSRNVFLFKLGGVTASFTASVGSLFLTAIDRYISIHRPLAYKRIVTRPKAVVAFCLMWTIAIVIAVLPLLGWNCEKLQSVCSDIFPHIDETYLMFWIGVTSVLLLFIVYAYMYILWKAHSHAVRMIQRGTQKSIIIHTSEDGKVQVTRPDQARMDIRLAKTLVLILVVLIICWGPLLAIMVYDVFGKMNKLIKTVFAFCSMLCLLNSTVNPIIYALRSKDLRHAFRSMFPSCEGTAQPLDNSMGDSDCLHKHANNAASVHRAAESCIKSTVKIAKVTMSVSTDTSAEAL
T1 sequence (P21554 whole entry): as above
Sequence of human CB2 (P34972 whole entry): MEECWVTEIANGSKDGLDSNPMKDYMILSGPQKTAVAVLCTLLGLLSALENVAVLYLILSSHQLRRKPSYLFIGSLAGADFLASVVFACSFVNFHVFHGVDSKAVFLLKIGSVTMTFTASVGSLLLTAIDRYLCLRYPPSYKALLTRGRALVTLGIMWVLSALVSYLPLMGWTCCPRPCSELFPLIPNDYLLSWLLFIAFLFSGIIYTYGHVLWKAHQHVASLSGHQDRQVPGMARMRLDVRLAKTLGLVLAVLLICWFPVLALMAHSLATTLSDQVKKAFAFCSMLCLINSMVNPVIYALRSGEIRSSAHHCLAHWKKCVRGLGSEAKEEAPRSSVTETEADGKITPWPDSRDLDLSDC
Sequence of Mouse CB1 (P47746 whole entry): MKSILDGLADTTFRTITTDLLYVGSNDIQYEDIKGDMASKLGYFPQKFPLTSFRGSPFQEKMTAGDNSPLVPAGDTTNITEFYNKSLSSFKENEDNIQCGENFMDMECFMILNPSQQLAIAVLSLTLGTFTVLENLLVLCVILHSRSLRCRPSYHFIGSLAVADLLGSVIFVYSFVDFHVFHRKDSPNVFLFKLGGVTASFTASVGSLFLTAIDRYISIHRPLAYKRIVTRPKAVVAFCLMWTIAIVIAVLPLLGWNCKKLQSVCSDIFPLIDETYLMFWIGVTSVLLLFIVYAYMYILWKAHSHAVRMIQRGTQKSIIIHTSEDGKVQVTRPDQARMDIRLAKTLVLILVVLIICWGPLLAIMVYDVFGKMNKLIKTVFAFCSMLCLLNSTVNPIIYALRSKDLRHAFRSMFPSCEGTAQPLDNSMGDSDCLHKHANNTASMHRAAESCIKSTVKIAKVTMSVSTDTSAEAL

On to `Cc1c(C(=O)NN2CCS(=O)(=O)CC2)nn(-c2ccc(Cl)cc2Cl)c1-c1ccc(C#CCCC#N)cc1` [AM6545, reference compound], for which, in experiment [1] (1.5 μM or 5 μM forskolin stimulated TRex-CHO CB1 cells, no exogenous agonist), the “effect on cAMP levels” value is listed as “did not affect cAMP levels”.

B1: PA2LR3-P3F8: CB1 antibody (antibody, V domains shown)
VH: EVQLQQSGAELVRPGSSVKISCKASGYAFSNYWMNWVKQRPGQGLEWIGQIYPGDGDTNYNGNFKGKATLTADKSSSTAYMQLSSLTSEDSAVYFCARSHGNYFPYWGQGTLVTVSA
VL: DIVLTQSPAIMSASLGERVTMTCTASSSVSSSYLHWYQQKPGSSPKLWIYSTSNLASGVPARFSGSGSGTSYSLTISSMEAEDAATYYCQQWSSYPLTFGAGTKLELK
modifications: PA2LR3-P3F8 Heavy Chain Variable Region; PA2LR3-P3F8 Light Chain Variable Region
notes: CB1 antibody
Take B1: the “induction of CB1 receptor internalization by the substance alone” value (shortened to “induction”) in experiment [2] is recorded as “do not induce”.

B2: PA2LR3-P4B1: HC variable SEQ ID NO: 42, LC variable SEQ ID NO: 46; potential agonist IgG (antibody, V domains shown)
VH: EVQLQQSGAELVRPGSSVKISCKASGFAFSNYWMNWVKQRPGQGLEWIGQIYPGDGDTNFNGKFKGRAILTADISSNTAYMQLSSLTSEDSAVYFCARSHGNYFPYWGQGTLVTVSA
VL: QIVLTQSPAIMSASLGERVTMTCTASSSVSSSYLHWYQQKPGSSPKLWIYSTSNLASGVPARFSGSGSGTSYSLTISSMEAEDAATYYCHQYHRSPLTFGAGTKLELK
modifications: PA2LR3-P4B1 Heavy chain variable region; PA2LR3-P4B1 Light chain variable region
For B2, the “induction” value in experiment [2] is on record as “do not induce”.

B3: PA2LR3-P6G7: HC variable SEQ ID NO: 58, LC variable SEQ ID NO: 62; potential agonist IgG (antibody, V domains shown)
VH: EVQLQQSGAELVRPGSSVKISCKASGFAFSNYWMNWVKQRPGQGLEWIGQIYPGDGDTNFNGKFKGRAILTADISSNTAYMQLSSLTSEDSAVYFCARSHGNYFPYWGQGTLVTVSA
VL: DIVLTQSPAIMSASLGERVTMTCTASSSVSSSYLHWYQQKPGSSPKLWIYSTSNLASGVPARFSGSGSGTSYSLTISSMEAEDAATYYCHQHHRSPPTFGAGTKLELK
modifications: PA2LR3-P6G7 Heavy chain variable region; PA2LR3-P6G7 Light chain variable region
As for B3, the “induction” value in experiment [2] is reported as “do not induce”.

B4: PA2LR3-P4B5: CB1 antibody; HC variable SEQ ID NO: 26, LC variable SEQ ID NO: 30 (antibody, V domains shown)
VH: EVQLQQSGAELVRPGSSVKISCKASGYAFSYYWMNWVKQRPGQGLEWIGQIYPGDGDTNYSGRFKGKATLTADKSSSTAYIQLSSLTSEDSAVYFCARSHGNYFPYWGQGTLVTVSA
VL: DIVLNQSPAIMSASLGERVTMTCTASSSVSSSYLHWYQQKPGSSPKLWIYSTSNLASGVPARFSGSGSGTSYSLTISSMEAEDAATYYCHQYHRSPLTFGAGTKLEIK
modifications: PA2LR3- P4B5 Heavy chain variable region; PA2LR3- P4B5 Light chain variable region
Take B4: in experiment [2], the “induction” value is listed as “do not induce”.

B5: PA2LR3-P5E7: CB1 antibody (antibody, V domains shown)
VH: EVQLQQSGAELVRPGSSVKISCKASGYAFSNYWMNWVKQRPGQGLEWIGQIYPGDGDTNFNGKFKGRAILTADISSNTAYMQLSSLTSEDSAVYFCARSHGNYFPYWGQGTLVTVSA
VL: DIVLTQSPTTMAASPGEKITITCSASSSISSNYLHWYQQKPGFSPKLLIYRTSTLASGVPARFSGSGSGTSYSLTISSMEAEDAATYYCHQYHRSPHTFGSGTKLEIK
modifications: PA2LR3-P5E7 Heavy Chain Variable region; PA2LR3-P5E7 Light Chain Variable region
notes: CB1 antibody
With B5, in experiment [2], the “induction” value is on record as “do not induce”.

B6: 36E12B6C2: hybridoma-derived anti-CB1 antibody; HC variable SEQ ID NO: 18, LC variable SEQ ID NO: 22 (antibody, listed as Mus sp., V domains shown)
VH: QVQLQQSGAELVRPGSSVKISCKASGYEFSYYWMNWVKQRPGQGLQWIGQIYPGDGDTNYNGKFKGKATLTADKSSSTAYMHLTSLTSEDSAVYFCARSGGNPFAFWGQGTLVTVSA
VL: DIQMTQTSSSLSASLGDRVTFSCRASQDISNYLNWYQQKPDGTVKLLIYYTSRLHSGVTSRFRGSGSGTDYSLTISNLEQEDVATYFCQQGHTLPWSFGGGTKLEIK
B6: in experiment [3], the “cross-activity / cross-reactivity Mouse CB1” value was “do not have cross-activity”. Moreover, in experiment [4], the “binding to parental TRex CHO” value was “not parental TRex CHO”. Also, in experiment [1] (5 μM forskolin, no agonist (Example 11)), the “mechanism (inverse agonist or neutral antagonist)” value is recorded as “inverse agonists”. In experiment [5], the “cross-activity / selectivity human CB2” value is listed as “do not have cross-activity”. For the same molecule, the “blocking of WIN55,212 induced ERK phosphorylation” value in experiment [6] is recorded as “blocked”.

B7: PA2LR3-P6B12: HC variable SEQ ID NO: 50, LC variable SEQ ID NO: 54; potential allosteric modulator (antibody, V domains shown)
VH: EVQLQQSGAELVRPGSSVKISCKASGYAFSYYWMNWVKQRPGQGLEWIGQIYPGDGDTNYNGKFKGKATLTADKSSSTAYMQLSSLTSEDSAVYFCARSHGNYFAYWGQGTLVTVSA
VL: QIVLTQSPAIMSASLGERVTMTCTASSSVSSSYLHWYQQKPGSSPKLWIYSTSNLASGVPARFSGSGSGTSYSLTISSMEAEDAATYYCHQYHRSPLAFGAGTKLELK
modifications: PA2LR3-P6B12 Heavy chain variable region; PA2LR3-P6B12 Light chain variable region
In the case of B7, the “induction” value in experiment [2] was “do not induce”.

B8: PA2LR3-P4G10: CB1 receptor binding IgG clone (antibody, V domains shown)
VH: EVQLQQFGAELVRPGSSVKISCKASGYAFSYYWMNWVKQRPGQGLEWIGQIYPGDGDTNYNGKFKGKATLTADKSSSTAYMQLSSLTSEDSAVYFCARSHGNYFAYWGQGTLVTVSA
VL: DIVLTQSPAIMSASLGERVTMTCTASSSVSSSYLHWYQQKPGSSPKLWIYSTSNLASGVPARFSGSGSGTSYSLTISSMEAEDAATYYCQQWSSNPLTFGAGTKLELK
modifications: PA2LR3-P4G10 Heavy Chain Variable region; PA2LR3-P4G10 Light Chain Variable region
In the case of B8, in experiment [2], the “induction” value is “do not induce”.

B9: PA2LR3-P3A8: CB1 antibody (antibody, V domains shown)
VH: EVQLQQSGAELVRPGSSVKISCKASGYAFSYYWMNWVKQRPGQGLEWIGQIYPGDGDTNYNGKVKGKATLTADKSSSTAYMQLSSLTSEDSAVYFCARSHGNYFAYWGQGTLVTVSA
VL: DIVMTQSPAIMSASLGERVTMTCTASSSVSSSYLHWYQQKPGSSPKLWIYSTSNLASGVPARFSGSGSGTSYSLTISSMEAEDAATYYCQQWSSNPLTFGAGTKLELK
modifications: PA2LR3-P3A8 Heavy Chain Variable Region; PA2LR3-P3A8 Light Chain Variable Region
notes: CB1 antibody
With B9, in experiment [2], the “induction” value is reported as “do not induce”.

B10: PA2LR3-P4C6: CB1 receptor binding IgG clone (antibody, V domains shown)
VH: EVQLQQSGAELVRPGSSVKISCKASGYAFSYYWMNWVKQRPGQGLEWIGQIYPGDGDTNYNGKFKGKATLTADKSSSTAYMQLSSLTSEDSAVYFCARSHGNYFPYWGQGTLVTVSA
VL: DIVITQSPAIVSASLGERVTMTCTASSSVSSSYLHWYQQKPGSSPKLWIYSTSNLASGVPARFSGSGSGTSYSLTISSMEAEDAATYYCQQWSSYPLTFGAGTKLEIK
modifications: PA2LR3-P4C6 Heavy Chain Variable region; PA2LR3-P4C6 Light Chain Variable region
Take B10: the “induction” value in experiment [2] is listed as “do not induce”.
